According to the supplement of paper PMC10126150:
± gives the standard deviation of the averaged measurements.

Test system: ATP
Experiment: switch fluorescence ratio, 500 uM ATP over buffer (Cy3 cluster intensity, sum of 5 cycles each) (fold (ratio)); higher = stronger signal-on switching upon ATP binding; sequences stand for … in TCGTCGGCAGCGTCAGATGTGTATAAGAGACAGTTTTTTTTTTTTTTTTTTTTTTTTT…TC
Conditions: aptamer strand: ATP DNA aptamer (quencher-CACCTGGGGGAGTATTGCGGAGGAAGG + anchor), 100 nM annealed; ATP concentration: 500 uM
Method in brief: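 Exposure to 500 uM ATP lasted 15 min at 22 °C before imaging, and a selection-buffer image was taken beforehand, for Cy3-labelled switching-strand clusters on a modified Illumina MiSeq flow-cell annealed to 100 nM quencher-labelled ATP aptamer. Five buffer/ATP cycles were run with NaOH stripping and re-annealing between them. The fluorescence ratio per cluster is summed target-cycle over summed buffer-cycle Cy3 intensity, averaged per switch-domain sequence. Clusters outside 100-1000 RFU were excluded.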

Sequence	switch fluorescence ratio
GGCTGATACG	1.04 ± 0.059
CGGATTATTT	0.984 ± 0.037
TGTCGCGTAG	0.993 ± 0.034
ATAGGGATTC	1.02 ± 0.038
CGTTATAAAT	0.996 ± 0.029
GAATTTTGCG	0.999 ± 0.021
GTGTGAGGTG	1 ± 0.03
ACCCATCTGT	0.979 ± 0.013
CCGTGGCGTG	1.01 ± 0.033
AGGGGCGACT	0.984 ± 0.03
TCCGGTGACG	0.968 ± 0.033
GTTTGAGGCG	1 ± 0.012
GCTATTGGGT	0.95 ± 0.022
GCTTGCGGGG	0.9774 ± 0.0015
CCTTAAGACA	1.06 ± 0.015
AAGCAGGGGC	1.14 ± 0.16
TTTTTAATAT	1.04 ± 0.062
AGTCAGGGTC	0.99 ± 0.032
GCGGTCATGG	0.992 ± 0.046
TTTTGAAAGG	0.976 ± 0.01
GGGGGAGTGA	0.972 ± 0.029
TTCTTGGACG	1.05 ± 0.16
AAGGGGACGA	0.978 ± 0.033
ACTTAGCGGT	1.07 ± 0.051
CGATTAAGGT	1.02 ± 0.043

Sequence	switch fluorescence ratio
TGGTTTGTGT	0.981 ± 0.018
TTTCGAGGGA	1 ± 0.025
GGTGGGGCAG	0.9643 ± 0.0041
GGGTCGGATG	1.03 ± 0.033
CATGTAACGC	1.04 ± 0.066
TCGGGAGATT	1.02 ± 0.029
TTGACAAACG	1.1 ± 0.054
TCCTGATTCT	1.03 ± 0.033
TGGTTTGGTT	0.986 ± 0.04
AGGTGATTTT	0.991 ± 0.013
GAATGTGATA	0.984 ± 0.018
GCCCTCCAGA	1.14 ± 0.13
AGTCATTGTT	0.989 ± 0.012
GCCAGCCGAC	1.2 ± 0.032
AGGGGGGGCT	0.985 ± 0.024
AAAGTTGATT	1.01 ± 0.03
AAGTTTTGTT	0.987 ± 0.023
TTGGAAAGCA	1.03 ± 0.027
AGGCTTAGG	0.957 ± 0.0032
AGTGGCTATC	1.01 ± 0.018
ATGCAGATTA	1.023 ± 0.0051
AACAGGGACC	1.04 ± 0.017
TGACTGCTGG	1.01 ± 0.027
TCATTCAAGG	1.02 ± 0.013
GGGAAAGGTT	1.01 ± 0.026

Sequence	switch fluorescence ratio
GCCTATAGTC	0.991 ± 0.03
CTGGGTAATA	1.08 ± 0.047
CATCTTTGAA	1.05 ± 0.017
TGCATGTACA	1.04 ± 0.037
CTGAAATCTG	0.9971 ± 0.0094
TTTTGCTGCA	0.978 ± 0.013
GAGGTGTTCA	1.01 ± 0.02
GCGGTTGGGG	1.01 ± 0.018
CCTGGGGTTG	1.05 ± 0.14
GAGCTCGTGG	1.03 ± 0.051
AGTTTACTGT	1.02 ± 0.072
GGGTGTGGAC	1.04 ± 0.023
CGATTGGTAC	1.25 ± 0.023
GGCCGTGGGC	1 ± 0.043
ACTAGGGGCA	0.98 ± 0.036
GGTCCTCGTG	0.998 ± 0.027
AACTGGAGGA	0.9715 ± 0.002
CGGGGGACGC	0.993 ± 0.06
ACTGCCTTCA	1.52 ± 0.12
CCGTGTACGG	0.999 ± 0.054
GTGGGAGATA	1.01 ± 0.038
TGGCGGCATG	1.01 ± 0.06
GGGGGGAAGT	1.01 ± 0.022
CCAGACAGGG	0.956 ± 0.045
GTAATTAAGG	0.996 ± 0.029

Sequence	switch fluorescence ratio
AGGATATATT	0.976 ± 0.0099
ATGAGTGGGG	1.01 ± 0.029
TTACGCCGAC	1.14 ± 0.15
CGAAGATCGA	0.982 ± 0.042
TGTTTTATAA	0.995 ± 0.024
GATTTCTGCT	0.974 ± 0.021
CAGTTGTTTT	1.02 ± 0.034
TTTCGTGGTG	0.997 ± 0.031
GTGTTTACTG	1.01 ± 0.054
TCTGGTTTTG	0.984 ± 0.043
GCTGTGTCCA	0.993 ± 0.01
AATTGAAGGG	0.996 ± 0.015
GGATTCTTGG	0.977 ± 0.024
GGATGGTGTG	0.977 ± 0.037
AGTACGAGGA	1.04 ± 0.035
TTTTTTTCCG	1.012 ± 0.0081
TACGGGAGGC	1.02 ± 0.032
TTTTAGGTTT	1.06 ± 0.16
CCTGACTTTC	1.11 ± 0.045
GAAGTTTCTA	0.999 ± 0.0069
ATCGCAATTG	1.89 ± 0.36
TTTGGGCAGT	1 ± 0.017
TCCATCGGGG	1.01 ± 0.013
GGACACGTTG	1.05 ± 0.083
AATTCCTCAG	1.43 ± 0.1
